According to PMC7840522, “Ca14-3-3 Interacts With CaWRKY58 to Positively Modulate Pepper Response to Low-Phosphorus Starvation”:

T1: CaWRKY58-6xHis (Capsicum annuum, UniProt Q5DJV3 1-378)
T1 sequence: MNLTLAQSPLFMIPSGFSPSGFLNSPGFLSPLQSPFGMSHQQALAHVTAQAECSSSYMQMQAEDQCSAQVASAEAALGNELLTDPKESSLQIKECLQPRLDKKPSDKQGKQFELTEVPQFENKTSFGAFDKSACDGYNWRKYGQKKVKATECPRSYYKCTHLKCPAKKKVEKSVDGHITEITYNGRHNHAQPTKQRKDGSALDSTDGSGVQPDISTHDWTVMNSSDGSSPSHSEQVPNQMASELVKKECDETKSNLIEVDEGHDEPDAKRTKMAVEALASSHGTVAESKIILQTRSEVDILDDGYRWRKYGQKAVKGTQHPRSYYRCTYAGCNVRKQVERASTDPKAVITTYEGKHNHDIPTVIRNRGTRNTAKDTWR


Tests used:
[1] = target: Ca14-3-3-GFP (pepper (Capsicum annuum)); assay: MST; 20 nM Ca14-3-3-GFP as target, CaWRKY58-6 × His as ligand serially diluted (1.0E^-10 to 1.0E^-3 mM), 10 min in interaction buffer, Monolith NT.115, 50% IR laser power, ambient temperature
CaWRKY58-6xHis = target: T1, CaWRKY58-6xHis; assay: EMSA; not stated in the material (EMSA as in cited works; Cy5 probes, Odyssey CLX); conditions: protein: recombinant; tags: 6xHis (pDEST17; text says N-terminal 6xHis); label: Cy5

Kd [1] [nM]	Molecule	binding result (CaWRKY58-6xHis)
210	CaWRKY58-6 × His (GFP fusion protein)	–
–	mCaPHR1-P (mCaPHR1-Pcy5) (dsDNA) DNA 1: AAACTATGCTCCTACATCTAAATTT DNA 2: AAATTTAGATGTAGGAGCATAGTTT	no binding
